From patent US8697369B2, “Method for screening a test substance for activating a receptor associated with FGF 21 activity” (National Institute of Advanced Industrial Science and …, priority 2007, dated 2014)
“Also recorded” adds a separate entry of the source. Each block holds one molecule with its values, some of them ahead of it.

Assays:
Type in all cases: cell-based
[1] = test system: 3T3-L1 fibroblasts forced to express betaKlotho; test: Phosphorylation of FRS2 and MAPK in undifferentiated 3T3-L1 cells forced to express betaKlotho; conditions: 10 μM; pre-treated for 3 hours, then stimulated with FGF21
Protocol: A betaKlotho expression vector produced by the method described in Example 4 and an empty vector used as a control, into which betaKlotho cDNA had not been inserted, were introduced into 3T3-L1 fibroblasts cultured as described in Example 1 by a lipofection method, thereby obtaining Puromycin-resistant clones. These different types of cells were stimulated with FGF21, and 10 minutes after the stimulation, a cell lysate was prepared. The activation of FRS2 and MAPK that were signaling molecules located downstream of FGFR was examined by a Western blotting method.

[2] = biological target: T1, BaF3 cells that had co-expressed FGFR1c and Klotho (Mus musculus, UniProt O35082+P16092); test: DNA synthesis in BaF3 cells co-expressing FGFR1c and Klotho; conditions: presence or absence of heparin
T1 construct: the entire-length cDNA of mouse FGFR1c had been cloned; expressed in transfected cells; host or cells: BaF3 (mouse pro-B) cells
Protocol: Specifically, BaF3 cell that had co-expressed FGFR1c and betaKlotho and BaF3 cells that had co-expressed FGFR1c and Klotho were prepared by the same transformation method and under the same culture conditions as those applied in Example 4. Thereafter, FGF21 and FGF23 were added to both types of transformed cells in the presence or absence of heparin, and the amount of DNA synthesized was then measured.

[3] = biological target: T2, FGFR1c/betaKlotho-expressing BaF3 cells (Mus musculus, UniProt P16092+Q99N32); test: DNA synthesis (thymidine incorporation) in FGFR1c/betaKlotho-expressing BaF3 cells; conditions: BaF3 cells expressing FGFR1c and betaKlotho; presence or absence of heparin
T2 construct: the entire-length cDNA of mouse FGFR1c had been cloned; the entire-length cDNA of mouse betaKlotho was cloned into an animal cell expression vector; expressed in transfected cells; host or cells: BaF3 (mouse pro-B) cells
T2 sequence (P16092 22-822): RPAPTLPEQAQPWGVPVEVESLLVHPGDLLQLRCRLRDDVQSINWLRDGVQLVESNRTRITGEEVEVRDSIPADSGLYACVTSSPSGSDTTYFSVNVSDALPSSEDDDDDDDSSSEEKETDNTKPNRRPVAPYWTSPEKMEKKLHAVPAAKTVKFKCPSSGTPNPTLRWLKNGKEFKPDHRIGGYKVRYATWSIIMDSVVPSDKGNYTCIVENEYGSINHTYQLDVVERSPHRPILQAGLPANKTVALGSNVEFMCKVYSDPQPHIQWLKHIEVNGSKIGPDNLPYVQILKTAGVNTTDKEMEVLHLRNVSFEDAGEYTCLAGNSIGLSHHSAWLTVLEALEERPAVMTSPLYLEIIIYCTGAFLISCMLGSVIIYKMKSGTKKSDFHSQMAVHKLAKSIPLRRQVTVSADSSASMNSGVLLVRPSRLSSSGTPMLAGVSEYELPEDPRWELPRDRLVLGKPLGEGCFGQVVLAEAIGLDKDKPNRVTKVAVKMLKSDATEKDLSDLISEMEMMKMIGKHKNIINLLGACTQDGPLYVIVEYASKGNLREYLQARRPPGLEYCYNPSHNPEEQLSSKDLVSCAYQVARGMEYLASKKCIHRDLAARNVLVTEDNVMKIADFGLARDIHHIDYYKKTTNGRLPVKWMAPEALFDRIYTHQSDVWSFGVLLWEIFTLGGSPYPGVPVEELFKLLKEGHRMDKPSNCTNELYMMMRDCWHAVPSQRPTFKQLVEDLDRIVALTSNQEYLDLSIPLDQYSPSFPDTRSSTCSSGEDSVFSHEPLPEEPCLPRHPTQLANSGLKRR
T2 sequence (Q99N32 whole entry): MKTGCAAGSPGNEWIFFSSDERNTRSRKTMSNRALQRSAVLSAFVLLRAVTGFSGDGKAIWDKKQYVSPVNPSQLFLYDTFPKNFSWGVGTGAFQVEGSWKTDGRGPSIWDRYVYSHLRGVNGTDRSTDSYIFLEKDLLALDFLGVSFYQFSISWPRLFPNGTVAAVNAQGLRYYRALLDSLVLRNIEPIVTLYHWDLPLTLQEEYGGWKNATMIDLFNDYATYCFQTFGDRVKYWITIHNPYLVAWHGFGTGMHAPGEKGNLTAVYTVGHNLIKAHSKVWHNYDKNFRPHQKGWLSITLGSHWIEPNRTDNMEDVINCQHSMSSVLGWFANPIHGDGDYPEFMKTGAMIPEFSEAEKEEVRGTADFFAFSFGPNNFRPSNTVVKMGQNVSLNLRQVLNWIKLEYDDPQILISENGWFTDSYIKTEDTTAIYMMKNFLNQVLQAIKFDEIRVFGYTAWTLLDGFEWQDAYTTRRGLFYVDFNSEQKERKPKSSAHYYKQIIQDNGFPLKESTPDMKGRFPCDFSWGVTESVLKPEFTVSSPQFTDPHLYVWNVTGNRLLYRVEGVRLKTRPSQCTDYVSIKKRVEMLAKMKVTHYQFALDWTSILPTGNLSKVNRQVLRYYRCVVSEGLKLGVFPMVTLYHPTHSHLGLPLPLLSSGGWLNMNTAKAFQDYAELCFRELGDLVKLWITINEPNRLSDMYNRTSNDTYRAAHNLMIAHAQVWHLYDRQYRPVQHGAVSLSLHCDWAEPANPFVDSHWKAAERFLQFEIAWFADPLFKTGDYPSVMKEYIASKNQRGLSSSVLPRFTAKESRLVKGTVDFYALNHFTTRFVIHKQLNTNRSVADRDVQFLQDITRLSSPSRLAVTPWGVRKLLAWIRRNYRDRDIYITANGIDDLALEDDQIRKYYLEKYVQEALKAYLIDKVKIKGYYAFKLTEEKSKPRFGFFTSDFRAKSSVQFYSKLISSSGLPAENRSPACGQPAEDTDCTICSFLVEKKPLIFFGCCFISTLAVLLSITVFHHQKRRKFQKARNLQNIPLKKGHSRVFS
Protocol: A commonly used measurement method is a cell growth stimulating activity measurement method described in Ornitz, D. M., Xu, J., Colvin, J. S., McEwen, D. G., MacArthur, C. A., Coulier, F., Gao, G. and Goldfarb, M. (1996) Receptor specificity of the fibroblast growth factor family. J Biol Chem, 271, 15292-15297. The summary thereof is as follows. FGF used as a measurement target is added to a culture solution containing a cultured cell having an FGF receptor on the surface thereof, and the obtained mixture is cultured for a certain period of time. Thereafter, a labeled thymidine is added to the culture solution, followed by further culture for a certain period of time. By measuring the amount of the labeled thymidine incorporated into polymeric DNA during the culture, the degree of FGF to activate DNA synthesis is evaluated. (In the present invention as well, this method was adopted when the activity of FGF21 was measured in Examples 4, 5, 6, 8, 9, and 10.)
FGFR1c-expressing BaF3 cells and FGFR1c- and betaKlotho-expressing BaF3 cells were prepared as follows. In the case of FGFR1c-expressing BaF3 cells, an animal cell expression vector into which the entire-length cDNA of mouse FGFR1c had been cloned (described in Ornitz, D. M., Xu, J., Colvin, J. S., McEwen, D. G., MacArthur, C. A., Coulier, F., Gao, G. and Goldfarb, M. (1996) Receptor specificity of the fibroblast growth factor family. J Biol Chem, 271, 15292-15297.) was introduced into BaF3 cells by an electroporation method. The cells were then cultured in the presence of G418 for approximately 2 weeks, so as to obtain drug-resistant clones. Thereafter, such clones were obtained as those capable of growing as a result of FGF1 stimulation. In the case of both FGFR1c- and betaKlotho-expressing BaF3 cells, the entire-length cDNA of mouse betaKlotho was cloned into an animal cell expression vector, and it was then introduced into the FGFR1c-expressing BaF3 cells. The cells were then cultured in the presence of Puromycin and G418 for approximately 2 weeks, so as to obtain drug-resistant clones. In the case of only betaKlotho-expressing BaF3 cells, a betaKlotho-expressing vector was introduced into BaF3 cells, and Puromycin-resistant clones were then obtained. The BaF3 cells, into which the aforementioned genes had been each introduced, were maintained in an RPMI1640 medium containing 10% FBS and interleukin 3 (IL3, supplied by adding a 5% condition medium of WEHI-3 cells). For the growth stimulation experiment, the cells were washed with an RPMI1640 medium, and they were then suspended in an RPMI1640 medium containing 10% FBS, followed by inoculating the suspension on a culture plate. Thereafter, the resultant cells were used.
Immediately after inoculation, BaF3 cells that had expressed each clone and only FGFR1c were stimulated by addition of FGF21 (open bar) or PBS (filled bar) used as a control in the presence of heparin, and they were then cultured for 42 hours. Thereafter, tritium-labeled thymidine was added to the culture solution, and the culture was further continued for 6 hours. Thereafter, the amount of thymidine incorporated into the cells was measured, so as to evaluate DNA synthesis. A DNA synthesis value obtained when the cells were not stimulated with FGF21 was defined as 1, and the ratio of a DNA synthesis value obtained by stimulating with FGF21 to the aforementioned DNA synthesis value was expressed using magnification. […]

[4] = biological target: T3, humanized FGFR1c/humanized betaKlotho (hβKlotho)-expressing cells (Homo sapiens, UniProt P11362+Q86Z14); test: DNA synthesis in humanized FGFR1c/humanized betaKlotho-expressing BaF3 cells; conditions: humanized FGFR1c and humanized betaKlotho; 10 μg/ml heparin
T3 construct: expressed in transfected cells; host or cells: BaF3 (mouse pro-B) cells; pSRalpha (FGFR1c), pcDNA3.1 (betaKlotho)
T3 sequence (P11362 22-822): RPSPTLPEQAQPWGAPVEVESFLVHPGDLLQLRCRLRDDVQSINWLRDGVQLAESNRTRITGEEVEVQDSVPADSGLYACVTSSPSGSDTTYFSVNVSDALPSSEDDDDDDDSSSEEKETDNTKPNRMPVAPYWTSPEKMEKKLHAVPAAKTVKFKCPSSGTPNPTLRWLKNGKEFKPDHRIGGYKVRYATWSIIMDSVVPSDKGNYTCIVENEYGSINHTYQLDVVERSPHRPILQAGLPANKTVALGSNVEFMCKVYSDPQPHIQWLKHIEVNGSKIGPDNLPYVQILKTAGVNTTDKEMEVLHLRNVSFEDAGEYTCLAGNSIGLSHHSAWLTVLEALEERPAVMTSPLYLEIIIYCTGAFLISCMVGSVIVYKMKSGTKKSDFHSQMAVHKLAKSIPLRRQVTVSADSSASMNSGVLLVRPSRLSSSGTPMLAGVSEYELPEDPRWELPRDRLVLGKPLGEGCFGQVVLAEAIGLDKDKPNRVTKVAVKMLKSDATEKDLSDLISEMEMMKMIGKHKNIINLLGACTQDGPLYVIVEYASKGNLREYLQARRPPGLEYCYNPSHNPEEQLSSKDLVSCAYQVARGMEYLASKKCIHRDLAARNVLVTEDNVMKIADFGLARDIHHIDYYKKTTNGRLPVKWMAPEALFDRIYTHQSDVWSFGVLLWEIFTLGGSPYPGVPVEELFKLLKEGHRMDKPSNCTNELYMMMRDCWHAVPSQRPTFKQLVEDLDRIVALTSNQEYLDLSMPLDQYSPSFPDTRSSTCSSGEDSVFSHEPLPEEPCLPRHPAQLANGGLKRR
T3 sequence (Q86Z14 whole entry): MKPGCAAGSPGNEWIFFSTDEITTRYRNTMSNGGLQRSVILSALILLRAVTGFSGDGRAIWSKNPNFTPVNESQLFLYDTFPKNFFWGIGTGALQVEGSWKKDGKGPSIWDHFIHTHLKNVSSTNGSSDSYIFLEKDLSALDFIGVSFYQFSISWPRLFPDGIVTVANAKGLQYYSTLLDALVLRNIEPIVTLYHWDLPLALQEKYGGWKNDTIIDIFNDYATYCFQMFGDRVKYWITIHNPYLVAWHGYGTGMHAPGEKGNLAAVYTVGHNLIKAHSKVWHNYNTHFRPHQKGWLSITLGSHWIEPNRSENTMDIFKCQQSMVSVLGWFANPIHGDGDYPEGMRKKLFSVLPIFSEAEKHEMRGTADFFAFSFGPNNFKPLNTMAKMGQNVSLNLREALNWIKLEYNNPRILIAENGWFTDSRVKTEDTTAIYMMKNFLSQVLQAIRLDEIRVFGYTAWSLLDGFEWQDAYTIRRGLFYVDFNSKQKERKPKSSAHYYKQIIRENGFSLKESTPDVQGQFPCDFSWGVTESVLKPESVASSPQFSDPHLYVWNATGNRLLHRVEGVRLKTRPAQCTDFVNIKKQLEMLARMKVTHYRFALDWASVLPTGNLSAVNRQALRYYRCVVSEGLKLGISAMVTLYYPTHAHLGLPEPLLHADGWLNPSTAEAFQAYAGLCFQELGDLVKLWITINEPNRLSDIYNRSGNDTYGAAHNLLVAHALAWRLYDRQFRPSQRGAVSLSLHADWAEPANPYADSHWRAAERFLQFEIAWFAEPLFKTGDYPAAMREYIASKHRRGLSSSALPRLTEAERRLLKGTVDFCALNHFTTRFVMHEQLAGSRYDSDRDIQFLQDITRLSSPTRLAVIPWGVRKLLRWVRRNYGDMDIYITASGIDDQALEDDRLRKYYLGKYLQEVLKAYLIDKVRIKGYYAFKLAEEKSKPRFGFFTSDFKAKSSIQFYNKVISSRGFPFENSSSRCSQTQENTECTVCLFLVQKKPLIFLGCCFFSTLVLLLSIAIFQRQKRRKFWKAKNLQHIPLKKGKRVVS
Description: (§1) In Examples 4, 5, 6, and 7, it was shown that FGF21 reacts with FGFR1c in the presence of betaKlotho. FGFR1c, betaKlotho, FGF21, and the like, which were used in an actual experimental system, were all derived from mice used as typical mammalian models. With regard to these molecules, the homology between a human and a mouse at the amino acid sequence level is extremely high (80% in FGF21, 78% in betaKlotho, and 98% in FGFR1). As a result, naturally, there are no problems regarding the compatibility of the human with the mouse, and thus it is clear that the same results as those from a murine molecule will be obtained even using a humanized molecule. In the present example, as a precautionary measure, an experimental system using a humanized molecule was constructed to confirm such respect, and an experiment was carried out. Specifically, the humanized cDNA of FGFR1c and that of betaKlotho were prepared from a commercially available human RNA sample (Takara Bio Inc.) by PCR. FGFR1c was introduced into an expression vector having an SRalpha promoter (pSRalpha), and betaKlotho was introduced into an expression vector having a CMV promoter (pcDNA3.1; Invitrogen). […] In the presence of heparin, humanized FGF21 was added in various types of concentrations to FGFR1c-expressing cells or FGFR1c/betaKlotho-co-expressing cells, and the amount of DNA synthesized was then measured.

[5] = biological target: T4, humanized FGFR3c (hR3c)-expressing BaF3 cells (Homo sapiens, UniProt P22607, A441S/A461E/A470D/A499P/A500N/A559S/A717S/A734V/A765M/C582S/D512S/D516E/D576E/D580N/D722E/D758Q/D785E/DEL405-414/E426D/E447G/E729D/E768D/F566Y/F579Y/F591S/F767L/G446S/G448T/G548D/G773S/G774F/H721N/I440P/I494L/I698V/I726M/INS417HSQMAVHKLAKSI/INS423TV/INS780T/K420R/K464R/K501R/K583H/L398M/L425A/L457Y/L554I/L645I/L752V/M488L/N428S/N434G/N453G/N644H/P401G/P402T/P436L/P502V/P584N/P778R/Q611K/Q775P/R397K/R399K/R416D/R498K/R568Q/S432N/S468P/S578C/S781C/T435V/T450M/T473V/T504K/T581P/T590S/T753A/T757N/V503T/V523I/V642I/V670I/V751I/V754L); test: DNA synthesis in humanized FGFR3c-expressing BaF3 cells; conditions: humanized FGFR3c only; 10 μg/ml heparin
T4 construct: expressed in transfected cells; host or cells: BaF3 (mouse pro-B) cells; pSRalpha vector
T4 sequence (P22607 other isoform, or with tags, fused parts or gaps with the stated changes): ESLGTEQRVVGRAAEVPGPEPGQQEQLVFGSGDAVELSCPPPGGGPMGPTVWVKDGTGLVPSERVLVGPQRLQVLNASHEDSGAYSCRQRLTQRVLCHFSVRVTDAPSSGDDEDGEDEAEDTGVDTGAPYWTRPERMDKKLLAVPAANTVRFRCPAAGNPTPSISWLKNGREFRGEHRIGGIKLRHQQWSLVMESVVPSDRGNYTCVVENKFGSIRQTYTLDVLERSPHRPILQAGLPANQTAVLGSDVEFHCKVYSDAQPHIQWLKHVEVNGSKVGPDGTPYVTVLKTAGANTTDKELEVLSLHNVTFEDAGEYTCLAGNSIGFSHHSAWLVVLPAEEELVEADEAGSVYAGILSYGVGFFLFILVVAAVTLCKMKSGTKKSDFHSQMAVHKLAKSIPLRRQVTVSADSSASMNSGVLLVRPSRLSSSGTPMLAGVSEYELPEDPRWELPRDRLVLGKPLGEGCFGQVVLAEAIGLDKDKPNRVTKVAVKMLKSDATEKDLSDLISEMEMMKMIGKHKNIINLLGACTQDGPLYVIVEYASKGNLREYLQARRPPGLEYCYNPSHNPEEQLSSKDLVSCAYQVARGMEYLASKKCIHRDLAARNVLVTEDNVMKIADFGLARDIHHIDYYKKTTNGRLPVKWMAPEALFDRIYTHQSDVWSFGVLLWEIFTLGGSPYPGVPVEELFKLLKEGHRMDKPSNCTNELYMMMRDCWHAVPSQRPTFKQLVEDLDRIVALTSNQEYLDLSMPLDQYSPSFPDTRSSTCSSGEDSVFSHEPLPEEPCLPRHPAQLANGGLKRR
Protocol: (§2) The homology between human FGFR3 and mouse FGFR3 at the amino acid sequence level is 93%. […] The cDNA of humanized FGFR3c was prepared from a commercially available human RNA sample (Takara Bio Inc.) by PCR. The sequence of its intracellular portion was substituted with the sequence of humanized FGFR1, and it was then introduced into an expression vector having an SRalpha promoter (pSRalpha). The FGFR3c expression vector was introduced into BaF3 cells by an electroporation method, so as to obtain FGFR3c-expressing BaF3 cells as G418-resistant clones. In the case of FGFR3c/betaKlotho-co-expressing cells, a betaKlotho expression vector was introduced into the FGFR3c-expressing BaF3 cells, so as to obtain the aforementioned cells as Puromycin-resistant clones. In the presence of heparin, humanized FGF21 was added in various types of concentrations to FGFR3c-expressing cells or FGFR3c/betaKlotho-co-expressing cells, and the amount of DNA synthesized was then measured.

[6] = biological target: T5, humanized FGFR1c (hR1c)-expressing BaF3 cells (Homo sapiens, UniProt P11362); test: DNA synthesis in humanized FGFR1c-expressing BaF3 cells; conditions: humanized FGFR1c only; 10 μg/ml heparin
T5 construct: expressed in transfected cells; host or cells: BaF3 (mouse pro-B) cells; pSRalpha vector
T5 sequence (P11362 22-822): as the sequence (P11362 22-822) above
Description: as §1

[7] = biological target: T6, humanized FGFR3c/humanized betaKlotho (hβKlotho)-expressing cells (Homo sapiens, UniProt P22607+Q86Z14, A441S/A461E/A470D/A499P/A500N/A559S/A717S/A734V/A765M/C582S/D512S/D516E/D576E/D580N/D722E/D758Q/D785E/DEL405-414/E426D/E447G/E729D/E768D/F566Y/F579Y/F591S/F767L/G446S/G448T/G548D/G773S/G774F/H721N/I440P/I494L/I698V/I726M/INS417HSQMAVHKLAKSI/INS423TV/INS780T/K420R/K464R/K501R/K583H/L398M/L425A/L457Y/L554I/L645I/L752V/M488L/N428S/N434G/N453G/N644H/P401G/P402T/P436L/P502V/P584N/P778R/Q611K/Q775P/R397K/R399K/R416D/R498K/R568Q/S432N/S468P/S578C/S781C/T435V/T450M/T473V/T504K/T581P/T590S/T753A/T757N/V503T/V523I/V642I/V670I/V751I/V754L); test: DNA synthesis in humanized FGFR3c/humanized betaKlotho-expressing BaF3 cells; conditions: humanized FGFR3c and humanized betaKlotho; 10 μg/ml heparin
T6 construct: expressed in transfected cells; host or cells: BaF3 (mouse pro-B) cells
T6 sequence (P22607 other isoform, or with tags, fused parts or gaps with the stated changes): as the sequence (P22607 other isoform, or with tags, fused parts or gaps with the stated changes) above
T6 sequence (Q86Z14 whole entry, stated change not applied): as the sequence (Q86Z14 whole entry) above
Protocol: as §2

Molecule: Cc1c[nH]c(/C=C2\C(=O)Nc3ccccc32)c1CCC(=O)O [SU5402, reference compound]
degree of phosphorylation of FRS2 and MAPK on FGF21 stimulation after inhibitor pre-treatment [1]: decreased

amount of DNA synthesized [2]: able to act on FGFR1c-expressing cells
DNA synthesis (thymidine incorporated into the cells) [3]: did not react with FGFR1c
B1: FGF23: FGF having high structural similarity to FGF21; Klotho acts as its co-receptor (protein, UniProt Q9GZV9 25-251, looked up)
Fibroblast growth factor 23: YPNASPLLGSSWGGLIHLYTATARNSYHLQIHKNGHVDGAPHQTIYSALMIRSEDAGFVVITGVMSRRYLCMDFRGNIFGSHYFDPENCRFQHQTLENGYDVYHSPQYHFLVSLGRAKRAFLPGMNPPPYSQFLSRRNEIPLIHFNTPIPRRHTRSAEDDSERDPLNVLKPRARMTPAPASCSQELPSAEDNSPMASDPLGVVRGGRVNTHAGGTGPEGCRPFAKFI

B2: humanized FGF21: FGF21 protein with human amino acid sequence, prepared in Escherichia coli from human cDNA (protein)
chain: HPIPDSSPLLQFGGQVRQRYLYTDDAQQTEAHLEIREDGTVGGAADQSPESLLQLKALKPGVIQILGVKTSRFLCQRPDGALYGSLHFDPEACSFRELLLEDGYNVYQSEAHGLPLHLPGNKSPHRDPAPRGPARFLPLPGLPPALPEPPGILAPQPPDVGSSDPLSMVGPSQGRSPSYAS
amount of DNA synthesized (thymidine incorporation) [4]: activated; also recorded: increased the amount of thymidine incorporated into the cells in a dose-dependent manner
amount of DNA synthesized (thymidine incorporation) [5]: activated only the FGFR3c/betaKlotho-co-expressing cells
amount of DNA synthesized (thymidine incorporation) [6]: activated only the FGFR1c/betaKlotho-co-expressing cells
amount of DNA synthesized (thymidine incorporation) [7]: activated; also recorded: increased the amount of thymidine incorporated into the cells in a dose-dependent manner
